Drawing on patent publication US20200317779A1, this text covers Absorbance (450 nm) for seven molecules.

Experiment [1] has as its target recombinant cynomolgus monkey CD3ε/δ heterodimer (cynomolgus monkey) (UniProt Q95LI5). In words: ELISA, coated CD3ε/δ.
The target of experiment [2] is recombinant human CD3ε/δ heterodimer (human) (UniProt P07766). In words: ELISA, coated CD3ε/δ. For orientation: In an ELISA, binding on a coated surface is turned into a signal by an enzyme label.
recombinant human CD3ε/δ heterodimer (human), sequence (P07766 23-126, stated change not applied, chain 1 of 2): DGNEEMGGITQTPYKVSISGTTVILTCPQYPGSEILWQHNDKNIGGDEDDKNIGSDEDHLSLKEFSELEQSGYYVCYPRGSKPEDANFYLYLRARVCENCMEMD
recombinant human CD3ε/δ heterodimer (human), sequence (P04234 22-105, stated change not applied, chain 2 of 2, further chain): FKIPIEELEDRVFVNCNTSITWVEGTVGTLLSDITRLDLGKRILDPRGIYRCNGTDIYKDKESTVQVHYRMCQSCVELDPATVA

recombinant cynomolgus monkey CD3ε/δ heterodimer (cynomolgus monkey), sequence (Q95LI5 22-117, stated change not applied, chain 1 of 2): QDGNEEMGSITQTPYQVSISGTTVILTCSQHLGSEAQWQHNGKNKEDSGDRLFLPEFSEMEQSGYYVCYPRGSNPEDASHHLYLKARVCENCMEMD
recombinant cynomolgus monkey CD3ε/δ heterodimer (cynomolgus monkey), sequence (Q95LI8 22-105, stated change not applied, chain 2 of 2, further chain): as the sequence (P04234 22-105, stated change not applied, chain 2 of 2, further chain) above, with I5V, N15K, I20V, S32T, D33N, I34N, T64A, S74N, V83L counted along it

B1: A06 (antibody, human IgG1, lambda, L234A L235A, V domains shown)
VH: EVQLVESGGGLVQPGGSLKLSCAASGFTFNTYAMNWVRQASGKGLEWVGRIRSKYNNYATYYADSVKDRFTISRDDSKNTAYLQMNSLKTEDTAVYYCVRHGNFGNSYVSWFAYWGQGTLVTVSS
VL: QAVVTQEPSLTVSPGGTVTLTCRSSTGAVTTSNYANWFQQKPGQAPRGLIYGTNKRAPWTPARFSGSLLGDKAALTLSGAQPEDEAEYYCALWYSNLWVFGGGTKLTVLG
With B1, the results for the Absorbance (450 nm) in experiment [1] and in experiment [2] were 0.108 and 0.14, respectively.

B2: D09 (antibody, human IgG1, lambda, L234A L235A, V domains shown)
VH: EVQLVESGGGLVQPGGSLKLSCAASGFTFNTYAMNWVRQASGKGLEWVGRIRSKYNNYATYYADSVKDRFTISRDDSQSTLYLQMNSLKTEDTAVYYCVRHGNFGNSYVSWFAYWGQGTLVTVSS
VL: QAVVTQEPSLTVSPGGTVTLTCRSSTGAVTTSNYANWVQQKPGQAPRTLIYGTNKRAPWTPARFSGSLLGGKAALTLSGAQPEDEAEYYCALWYSNLWVFGGGTKLTVLG
Take B2: the Absorbance (450 nm) in experiment [1] worked out at 0.098; in experiment [2], 0.122.

B3: D10 (antibody, human IgG1, lambda, L234A L235A, V domains shown)
VH: EVQLVESGGGLVQPGGSLKLSCAASGFTFNTYAMNWVRQASGKGLEWVGRIRSKYNNYATYYADSVKDRFTISRDDSQSTLYLQMNSLKTEDTAVYYCVRHGNFGNSYVSWFAYWGQGTLVTVSS
VL: QAVVTQEPSLTVSPGGTVTLTCRSSTGAVTTSNYANWVQQKPGQAPRTLIYGTNKRAPWTPARFSGSLLGDKAALTLSGAQPEDEAEYYCALWYSNLWVFGGGTKLTVLG
For B3, the Absorbance (450 nm) in experiment [1] came to 0.113; in experiment [2], 0.117.

B4: D14 (antibody, human IgG1, lambda, L234A L235A, V domains shown)
VH: EVQLVESGGGLVQPGGSLKLSCAASGFTFNTYAMNWVRQASGKGLEWVGRIRSKYNNYATYYADSVKDRFTISRDDSQSTLYLQMNSLKTEDTAVYYCVRHGNFGNSYVSWFAYWGQGTLVTVSS
VL: QAVVTQEPSLTVSPGGTVTLTCRSSTGAVTTSNYANWVQQKPGQAPRGLIYGTNKRAPWTPARFSGSLLGDKAALTLSGAQPEDEAEYYCALWYSNLWVFGGGTKLTVLG
Turning to B4, the Absorbance (450 nm) in experiment [1] came to 0.113; in experiment [2], 0.149.

B5: D13 (antibody, human IgG1, lambda, L234A L235A, V domains shown)
VH: EVQLVESGGGLVQPGGSLKLSCAASGFTFNTYAMNWVRQASGKGLEWVGRIRSKYNNYATYYADSVKDRFTISRDDSQSTLYLQMNSLKTEDTAVYYCVRHGNFGNSYVSWFAYWGQGTLVTVSS
VL: QAVVTQEPSLTVSPGGTVTLTCRSSTGAVTTSNYANWVQQKPGQAPRGLIYGTNKRAPWTPARFSGSLLGGKAALTLSGAQPEDEAEYYCALWYSNLWVFGGGTKLTVLG
In the case of B5, the results for the Absorbance (450 nm) in experiment [1] and in experiment [2] were 0.532 and 0.569, respectively.

B6: D12 (antibody, human IgG1, lambda, L234A L235A, V domains shown)
VH: EVQLVESGGGLVQPGGSLKLSCAASGFTFNTYAMNWVRQASGKGLEWVGRIRSKYNNYATYYADSVKDRFTISRDDSQSTLYLQMNSLKTEDTAVYYCVRHGNFGNSYVSWFAYWGQGTLVTVSS
VL: QAVVTQEPSLTVSPGGTVTLTCRSSTGAVTTSNYANWVQQKPGQAPRTLIGGTNKRAPWTPARFSGSLLGDKAALTLSGAQPEDEAEYYCALWYSNLWVFGGGTKLTVLG
Regarding B6, the Absorbance (450 nm) in experiment [1] amounted to 0.114; in experiment [2] it was 0.095.

B7: D11 (antibody, human IgG1, lambda, L234A L235A, V domains shown)
VH: EVQLVESGGGLVQPGGSLKLSCAASGFTFNTYAMNWVRQASGKGLEWVGRIRSKYNNYATYYADSVKDRFTISRDDSQSTLYLQMNSLKTEDTAVYYCVRHGNFGNSYVSWFAYWGQGTLVTVSS
VL: QAVVTQEPSLTVSPGGTVTLTCRSSTGAVTTSNYANWVQQKPGQAPRTLIGGTNKRAPWTPARFSGSLLGGKAALTLSGAQPEDEAEYYCALWYSNLWVFGGGTKLTVLG
As for B7, the figures for the Absorbance (450 nm) in experiment [1] and in experiment [2] were 0.134 and 0.138, respectively.
